B9: AIF(370-394) synthetic peptide (peptide, UniProt O95831 370-394, looked up)
peptide: QSVGVSSGKLLIKLKDGRKVETDHI
notes: also called AIF peptide; source: synthetic peptide

A value given as a limit tells only on which side of the number the result lay.

Common to all, as to conditions: both partners purified
The target in assay [1] is B9. The experiment in a line: EnSpire label-free direct binding assay; direct binding of CypA peptides, CypA or CypA R55A with AIF(370-394) or AIF(Δ1-121); details (who was immobilised) in the Supplementary Information.
The target of assay [2] is T1, Apoptosis Inducing Factor, pro-apoptotic form AIF(Δ1-121) (UniProt O95831 122-613).
T1 construct: also called apoptogenic form of AIF
The description is as above.

Assay [3] has as its target T2, His-tagged Cyclophilin A (CypA) (UniProt P62937 1-165).
T2 construct: Cyclophilin A (CypA), peptidyl-prolyl isomerase; Uniformly 15N-labelled for the NMR experiments, unlabelled elsewhere; also called CypA wild type; 15N-CypA; source: bacteria, IPTG-induced, purified (His-trap HP, size exclusion chromatography)
The experiment in a line: ITC; AIF(370-394) 0.7 mM injected (20 x 2 μL) into CypA 5 μM, 25 °C, PBS 1X with 1 mM DTT, pH 7.4; single-site model; triplicate. (In general: ITC needs no label: the signal is the heat of the interaction.)

For assay [4], the target named is T2, His-tagged Cyclophilin A (CypA). Briefly: EnSpire label-free direct binding assay; direct binding of CypA peptides, CypA or CypA R55A with AIF(370-394) or AIF(Δ1-121); details (who was immobilised) in the Supplementary Information.
The next assay has as its target T3, CypA R55A mutant (UniProt P62937 1-165, R55A).
T3 construct: Cyclophilin A (CypA) with R55A; the R55A mutant corresponding to His-tagged CypA; The starting construct carried a Myc tag; also called R55A CypA mutant; R55A mutated CypA; source: prepared starting from the construct pCMV6-AC-Myc-CypA^R55A
The description is as above.

T1 sequence (O95831 122-613, stated change not applied): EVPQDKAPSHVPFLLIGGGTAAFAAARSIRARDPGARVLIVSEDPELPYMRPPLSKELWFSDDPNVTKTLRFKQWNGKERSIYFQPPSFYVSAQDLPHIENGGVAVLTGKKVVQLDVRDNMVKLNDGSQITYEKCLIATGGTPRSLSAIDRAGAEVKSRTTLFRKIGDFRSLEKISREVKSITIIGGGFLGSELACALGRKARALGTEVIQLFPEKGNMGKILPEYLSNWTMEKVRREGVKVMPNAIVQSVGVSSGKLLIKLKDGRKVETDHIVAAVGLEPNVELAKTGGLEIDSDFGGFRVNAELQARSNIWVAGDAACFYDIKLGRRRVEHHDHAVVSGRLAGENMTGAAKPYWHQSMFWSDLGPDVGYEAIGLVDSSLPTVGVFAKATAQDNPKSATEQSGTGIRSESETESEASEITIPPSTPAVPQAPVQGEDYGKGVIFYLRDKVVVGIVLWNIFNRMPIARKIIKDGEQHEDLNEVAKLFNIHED
T2 sequence (P62937 whole entry): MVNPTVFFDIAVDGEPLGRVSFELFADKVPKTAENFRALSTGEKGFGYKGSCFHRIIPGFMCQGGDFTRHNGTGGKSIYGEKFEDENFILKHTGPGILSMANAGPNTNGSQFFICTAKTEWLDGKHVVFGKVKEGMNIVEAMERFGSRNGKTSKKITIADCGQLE
T3 sequence (P62937 whole entry R55A): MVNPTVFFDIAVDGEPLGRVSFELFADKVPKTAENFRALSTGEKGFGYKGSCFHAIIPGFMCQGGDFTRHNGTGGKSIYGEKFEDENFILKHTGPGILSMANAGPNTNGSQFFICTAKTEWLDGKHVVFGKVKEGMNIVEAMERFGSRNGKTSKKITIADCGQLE

B1: CypA(99-109) + (83–90), two peptides tested in combination (other)
peptide 1: SMANAGPNTNG
peptide 2: FEDENFIL
notes: Cyclophilin A (CypA), residues 99-109; Cyclophilin A (CypA), residues 83-90; A mixture of separate peptides; source: synthetic peptides, combined
Broadly, the Kd is a measure of binding affinity in units of concentration. Low values mean higher affinity, high ones lower affinity. For B1, in assay [1], binding was characterised by a dissociation constant (Kd) of 304 ± 10.8 µM.

B2: CypA(121-131) + (83–90), two peptides tested in combination (other)
peptide 1: WLDGKHVVFGK
peptide 2: FEDENFIL
notes: Cyclophilin A (CypA), residues 83-90; A mixture of separate peptides; source: synthetic peptides, combined
Consider B2, for which the results for the Kd in assay [2] and in assay [1] were 31.3 ± 2.8 µM and 87 ± 5.8 µM, respectively.

B3: CypA(121-131) + (99–109), two peptides tested in combination (other)
peptide 1: WLDGKHVVFGK
peptide 2: SMANAGPNTNG
notes: Cyclophilin A (CypA), residues 99-109; A mixture of separate peptides; source: synthetic peptides, combined
For the molecule B3, the values for the Kd in assay [2] and in assay [1] were 27.2 ± 5.8 µM and 43 ± 6.8 µM, respectively.

B4: CypA(55-69) + (67–79), two peptides tested in combination (other)
peptide 1: RIIPGFMCQGGDFTR
peptide 2: FTRHNGTGGKSIY
notes: Cyclophilin A (CypA), residues 55-69; Cyclophilin A (CypA), residues 67-79; A mixture of separate peptides; source: synthetic peptides, combined
On to B4, for which the dissociation constant Kd in assay [2] worked out at 51.4 ± 12.2 µM; in assay [1], 34.9 ± 8.1 µM.

B5: CypA(67-79) + (49–62), two peptides tested in combination (other)
peptide 1: FTRHNGTGGKSIY
peptide 2: KGSCFHRIIPGFMC
notes: Cyclophilin A (CypA), residues 67-79; Cyclophilin A (CypA), residues 49-62; A mixture of separate peptides; source: synthetic peptides, combined
For B5, the Kd is 2.8 ± 0.9 µM in assay [2] and 3.1 ± 1.3 µM in assay [1].

B6: CypA(121-131) + (99–109) + (83-90), three peptides tested in combination (other)
peptide 1: WLDGKHVVFGK
peptide 2: SMANAGPNTNG
peptide 3: FEDENFIL
notes: Cyclophilin A (CypA), residues 99-109; Cyclophilin A (CypA), residues 83-90; A mixture of separate peptides; source: synthetic peptides, combined; copies: + +
For the molecule B6, the Kd in assay [2] was found to be 38.8 ± 4.6 µM; in assay [1], 268 ± 9.65 µM.

B7: CypA(55-69) peptide with R69 replaced by alanine (peptide, UniProt P62937 55-69, looked up)
peptide: RIIPGFMCQGGDFTA
notes: Cyclophilin A (CypA), residues 55-69, R69 replaced by alanine; also called CypA(55-69)R69; source: synthetic peptide
Take B7: in assay [2], the Kd was > 1000 µM.

B8: CypA(55-69) + (49–62), two peptides tested in combination (other)
peptide 1: RIIPGFMCQGGDFTR
peptide 2: KGSCFHRIIPGFMC
notes: Cyclophilin A (CypA), residues 55-69; Cyclophilin A (CypA), residues 49-62; A mixture of separate peptides; source: synthetic peptides, combined
B8: the Kd was found to be 2.2 ± 0.7 µM in assay [2] and 4.6 ± 1.3 µM in assay [1]. For the molecule B9, the dissociation constant (Kd) in assay [3] came to 6 µM; in assay [4], 3 ± 0.6 µM; with CypA R55A mutant, 3.1 ± 0.7 µM.

B10: CypA(55-69) + (67–79) + (49-62), three peptides tested in combination (other)
peptide 1: RIIPGFMCQGGDFTR
peptide 2: FTRHNGTGGKSIY
peptide 3: KGSCFHRIIPGFMC
notes: Cyclophilin A (CypA), residues 55-69; Cyclophilin A (CypA), residues 67-79; Cyclophilin A (CypA), residues 49-62; A mixture of separate peptides; source: synthetic peptides, combined; copies: + +
With B10, the dissociation constant (Kd) in assay [2] was 25.2 ± 5 µM; in assay [1], 20.7 ± 6.5 µM.

The record behind these values is publication PMC5430804, “Structural and biochemical insights of CypA and AIF interaction” (Scientific Reports, 2017).
